Measured values taken from patent US20190338048A1.
Read-outs that look alike come from different tables or passages of the source. One block for each substance: values may come before it.

What was measured:
[1] = molecular target: SGN-CD19a kappa light chain L2 with V133G_S176D_T178E; test: SMCA System B: four chains co-expressed, protein A, LC-MS
[2] = molecular target: SGN-CD19a kappa light chain L2 with V133G_S176D_T178E; test: SMCA System C: four chains co-expressed, protein A, LC-MS
[3] = molecular target: SGN-CD19a kappa light chain S121K_Q124R_T178R (L2 of design 3890, system B); test: SMCA LC-MS
[4] = molecular target: CR8071 lambda light chain V133D_Y178T (L1 of designs 3113 and 3122, system C); test: SMCA LC-MS
[5] = molecular target: CR8071 lambda light chain V133D_Y178T (L1 of designs 3113 and 3122, system C); test: SMCA LC-MS; remark: listed apart in the source
[6] = molecular target: Recombinant human IL-17A (human) (UniProt Q16552); test: SPR, IL-17A immobilised, purified Fab injected
[7] = molecular target: Recombinant human IL-17A (human) (UniProt Q16552); test: SPR
[8] = molecular target: SGN-CD19a kappa light chain S131R_V133G_S176R (L2 of designs 3102 and 3113, systems B and C); test: SMCA LC-MS
[9] = molecular target: SGN-CD19a kappa light chain S131R_V133G_S176R (L2 of designs 3102 and 3113, systems B and C); test: SMCA LC-MS; remark: listed apart in the source
[10] = molecular target: SGN-CD19a kappa light chain S131R_V133G_S176R (L2 of designs 3102 and 3113, systems B and C); test: SMCA LC-MS; remark: listed apart in the source
[11] = molecular target: SGN-CD19a kappa light chain S131R_V133G_S176R (L2 of designs 3102 and 3113, systems B and C); test: SMCA LC-MS; remark: listed apart in the source
[12] = molecular target: Design 3898 L2: SGN-CD19a kappa light chain Q124R_T178R; test: SMCA: H1, L1, H2, L2 co-expressed, protein A, LC-MS
[13] = molecular target: Design 3898 L2: SGN-CD19a kappa light chain Q124R_T178R; test: as above; remark: listed apart in the source
[14] = molecular target: SGN-CD19a kappa light chain L2 with Q124E_V133D; test: SMCA System B: four chains co-expressed, protein A, LC-MS
[15] = molecular target: SGN-CD19a kappa light chain L2 with Q124E_V133D; test: SMCA System C: four chains co-expressed, protein A, LC-MS
[16] = molecular target: SGN-CD19a kappa light chain L2 with V133G_S176D; test: SMCA System B: four chains co-expressed, protein A, LC-MS
[17] = molecular target: SGN-CD19a kappa light chain L2 with V133G_S176D; test: SMCA System C: four chains co-expressed, protein A, LC-MS
[18] = molecular target: SGN-CD19a kappa light chain L2 with V133G_S176D_T180E; test: SMCA System B: four chains co-expressed, protein A, LC-MS
[19] = molecular target: SGN-CD19a kappa light chain L2 with V133G_S176D_T180E; test: SMCA System C: four chains co-expressed, protein A, LC-MS
[20] = molecular target: Pertuzumab kappa light chain V133G_S176D_T180E (L2), N-terminal HA tag; test: LCCA, SPR of light chain tags
[21] = molecular target: Pertuzumab kappa light chain V133G_S176D_T180E (L2), N-terminal HA tag; test: LCCA, SPR of light chain tags; remark: listed apart in the source
[22] = molecular target: Pertuzumab kappa light chain V133G_S176D_T180E (L2), N-terminal HA tag; test: LCCA, SPR of light chain tags; remark: listed apart in the source
[23] = molecular target: Pertuzumab kappa light chain V133G_S176D_T180E (L2), N-terminal HA tag; test: LCCA, SPR of light chain tags; remark: listed apart in the source
[24] = molecular target: CAT-2200 lambda light chain S176K_Y178L (L1), N-terminal FLAG tag; test: LCCA, SPR of light chain tags
[25] = molecular target: CAT-2200 lambda light chain S176K_Y178R (L1), N-terminal FLAG tag; test: LCCA, SPR of light chain tags
[26] = molecular target: SGN-CD19a kappa light chain S131D_V133G_T178F (L2 of design 3025, systems B and C); test: SMCA LC-MS
[27] = molecular target: SGN-CD19a kappa light chain S131D_V133G_T178F (L2 of design 3025, systems B and C); test: SMCA LC-MS; remark: listed apart in the source
[28] = molecular target: Design 3890 L2: SGN-CD19a kappa light chain S121K_Q124R_T178R; test: SMCA: H1, L1, H2, L2 co-expressed, protein A, LC-MS
[29] = molecular target: Design 3898 L1: CR8071 lambda light chain K129T_Y178E_S180E; test: as above
[30] = molecular target: CAT-2200 lambda light chain S176K_Y178K (L1), N-terminal FLAG tag; test: LCCA, SPR of light chain tags
[31] = molecular target: CR8071 lambda light chain L1 with S176E_Y178E; test: SMCA System C: four chains co-expressed, protein A, LC-MS
[32] = molecular target: SGN-CD19a kappa light chain S176K_T178K (L2 of design 3122, systems B and C); test: SMCA LC-MS
[33] = molecular target: SGN-CD19a kappa light chain S176K_T178K (L2 of design 3122, systems B and C); test: SMCA LC-MS; remark: listed apart in the source
[34] = molecular target: SGN-CD19a kappa light chain L2 with S131R_V133G_S176R; test: SMCA System B: four chains co-expressed, protein A, LC-MS
[35] = molecular target: SGN-CD19a kappa light chain L2 with S131R_V133G_S176R; test: SMCA System C: four chains co-expressed, protein A, LC-MS
[36] = molecular target: CR8071 lambda light chain E124Q_T131R (L1 of design 3025, system C); test: SMCA LC-MS
[37] = molecular target: SGN-CD19a kappa light chain Q124R_Q160K_T178R (L2 of design 3878, systems B and C); test: SMCA LC-MS
[38] = molecular target: SGN-CD19a kappa light chain Q124R_Q160K_T178R (L2 of design 3878, systems B and C); test: SMCA LC-MS; remark: listed apart in the source
[39] = molecular target: CR8071 lambda light chain L1 with S176K_Y178K; test: SMCA System C: four chains co-expressed, protein A, LC-MS
[40] = molecular target: CR8071 lambda light chain L1 with S176K_Y178K; test: as above; remark: listed apart in the source
[41] = molecular target: Design 3890 L1: CR8071 lambda light chain S122D_K129T_S180E; test: SMCA: H1, L1, H2, L2 co-expressed, protein A, LC-MS
[42] = molecular target: CR8071 lambda light chain K129T_S180E (L1 of design 3878, system C); test: SMCA LC-MS

Sequence of Recombinant human IL-17A (human) (Q16552 20-155 limits assumed): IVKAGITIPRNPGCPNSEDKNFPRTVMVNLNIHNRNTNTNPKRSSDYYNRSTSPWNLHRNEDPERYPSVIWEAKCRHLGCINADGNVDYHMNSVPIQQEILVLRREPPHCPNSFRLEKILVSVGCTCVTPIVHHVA

% H2L2 Pairing [3]: 51.3% | Change in % H2L2 Pairing with respect to wild type [3]: -2.9%
Substance: SGN-CD19a heavy chain L143E_K145T_K228D (H2 of design 3890, system B)

% H1L1 Pairing [4]: 65.8% | Change in % H1L1 Pairing with respect to wild type [4]: -16.5% | % H1L1 Pairing [5]: 76.7% | Change in % H1L1 Pairing with respect to wild type [5]: -5.6%
Substance: CR8071 heavy chain S186K_S188T (H1 of designs 3113 and 3122, system C)

% H2L2 Pairing [12]: 95.2% | Change in % H2L2 Pairing with respect to wild type [12]: 35.3% | % H2L2 Pairing [13]: 74.5% | Change in % H2L2 Pairing with respect to wild type [13]: 36.9%
Substance: Design 3898 H2: SGN-CD19a heavy chain L143E_K145T_Q179E

% H2L2 Pairing [16]: 94.6% | Change in % H2L2 Pairing with respect to wild type [16]: 40.4% | % H2L2 Pairing [17]: 99.5% | Change in % H2L2 Pairing with respect to wild type [17]: 19.9%
Substance: SGN-CD19a heavy chain H2 with L124R

% H2L2 Pairing [18]: 98.6% | Change in % H2L2 Pairing with respect to wild type [18]: 44.4% | % H2L2 Pairing [19]: 99.5% | Change in % H2L2 Pairing with respect to wild type [19]: 28.2%
Substance: SGN-CD19a heavy chain H2 with L124R_S186R

H2L2:H2L1 normalized median scalar value ln(r1/f1) [20]: 0.79 | H2L2:H2L1 normalized median scalar value ln(r1/f1) [21]: 0.75 | H2L2:H2L1 normalized median scalar value ln(r1/f1) [22]: 0.67 | H2L2:H2L1 normalized median scalar value ln(r1/f1) [23]: 0.63 | H2L2:H2L1 normalized median ratio [24]: 34% | H2L2:H2L1 normalized median ratio [25]: 31%
Substance: Pertuzumab Fab heavy chain L124R_Q179K (H2), ABD2-His6 tagged

% H2L2 Pairing [28]: 88.5% | Change in % H2L2 Pairing with respect to wild type [28]: 17.2%
Substance: Design 3890 H2: SGN-CD19a heavy chain L143E_K145T_K228D

H2L2:H2L1 normalized median scalar value ln(r1/f1) [20]: 1.17 | H2L2:H2L1 normalized median scalar value ln(r1/f1) [21]: 1.06 | H2L2:H2L1 normalized median scalar value ln(r1/f1) [22]: 0.98 | H2L2:H2L1 normalized median scalar value ln(r1/f1) [23]: 1.21 | H2L2:H2L1 normalized median ratio [24]: 27% | H2L2:H2L1 normalized median ratio [30]: 26%
Substance: Pertuzumab Fab heavy chain L124R_S186R (H2), ABD2-His6 tagged

% H2L2 Pairing [32]: 89.7% | Change in % H2L2 Pairing with respect to wild type [32]: 52.1% | % H2L2 Pairing [33]: 99.8% | Change in % H2L2 Pairing with respect to wild type [33]: 39.9%
Substance: SGN-CD19a heavy chain K145T_V177D_S188D (H2 of design 3122, systems B and C)

% H1L1 Pairing [36]: 43.9% | Change in % H1L1 Pairing with respect to wild type [36]: -4.5%
Substance: CR8071 heavy chain L143D_K145T (H1 of design 3025, system C)

% H1L1 Pairing [39]: 41.5% | Change in % H1L1 Pairing with respect to wild type [39]: -6.9% | % H1L1 Pairing [40]: 62.6% | Change in % H1L1 Pairing with respect to wild type [40]: 14.2%
Substance: CR8071 heavy chain H1 with K145T_V177D_S188D

The remaining lines, values behind:

Substance: SGN-CD19a heavy chain H2 with L124R_S186K
% H2L2 Pairing [1]: 98.8% | Change in % H2L2 Pairing with respect to wild type [1]: 44.6% | % H2L2 Pairing [2]: 99.6% | Change in % H2L2 Pairing with respect to wild type [2]: 20%

Substance: CAT-2200 Fab, H1 Q179K / L1 K129T_S180E
Kd [6]: 0.24 nM | Change in KD of H1L1 Fab vs wild type (log(KD) units) [7]: -0.056

Substance: SGN-CD19a heavy chain L124E_K145T_Q179E (H2 of designs 3102 and 3113, systems B and C)
% H2L2 Pairing [8]: 92.8% | Change in % H2L2 Pairing with respect to wild type [8]: 55.2% | % H2L2 Pairing [9]: 99.8% | Change in % H2L2 Pairing with respect to wild type [9]: 39.9% | % H2L2 Pairing [10]: 90.9% | Change in % H2L2 Pairing with respect to wild type [10]: 53.3% | % H2L2 Pairing [11]: 99.6% | Change in % H2L2 Pairing with respect to wild type [11]: 39.7%

Substance: SGN-CD19a heavy chain H2 with L143K
% H2L2 Pairing [14]: 94.3% | Change in % H2L2 Pairing with respect to wild type [14]: 40.1% | % H2L2 Pairing [15]: 99.6% | Change in % H2L2 Pairing with respect to wild type [15]: 20%

Substance: CAT-2200 Fab, H1 S186R / L1 K129T_S180E
Kd [6]: 0.26 nM | Change in KD of H1L1 Fab vs wild type (log(KD) units) [7]: -0.088

Substance: SGN-CD19a heavy chain S188K (H2 of design 3025, systems B and C)
% H2L2 Pairing [26]: 87.9% | Change in % H2L2 Pairing with respect to wild type [26]: 33.7% | % H2L2 Pairing [27]: 99.7% | Change in % H2L2 Pairing with respect to wild type [27]: 20.1%

Substance: Design 3898 H1: CR8071 heavy chain Q179K
% H1L1 Pairing [29]: 97.4% | Change in % H1L1 Pairing with respect to wild type [29]: 15.1%

Substance: CR8071 heavy chain H1 with S188K
% H1L1 Pairing [31]: 94.5% | Change in % H1L1 Pairing with respect to wild type [31]: 12.2%

Substance: SGN-CD19a heavy chain H2 with L124E_K145T_Q179E
% H2L2 Pairing [34]: 77.3% | Change in % H2L2 Pairing with respect to wild type [34]: 39.7% | % H2L2 Pairing [35]: 99.5% | Change in % H2L2 Pairing with respect to wild type [35]: 39.6%

Substance: SGN-CD19a heavy chain L143E_K145T_S188L (H2 of design 3878, systems B and C)
% H2L2 Pairing [37]: 67.4% | Change in % H2L2 Pairing with respect to wild type [37]: 7.5% | % H2L2 Pairing [38]: 28.7% | Change in % H2L2 Pairing with respect to wild type [38]: -8.9%

Substance: Design 3890 H1: CR8071 heavy chain A125R_Q179K
% H1L1 Pairing [41]: 98.4% | Change in % H1L1 Pairing with respect to wild type [41]: 30.3%

Substance: CR8071 heavy chain Q179K (H1 of design 3878, system C)
% H1L1 Pairing [42]: 99.3% | Change in % H1L1 Pairing with respect to wild type [42]: 17%
